We go through one substance from US6596261B1, “Method of administering a medicinal aerosol formulation” (Aeropharm Technology Incorporated, priority 2000, dated 2003).

Ends that are not written are not given here.

The data set in a line: Pharmacokinetics of amylin in rabbits after intravenous versus intrapulmonary administration. The class given is in vivo, New Zealand rabbits. The settings on record: for Vd: average of six; for Ke: elimination rate constant; for K12: rate constant central to peripheral compartment; for K21: rate constant peripheral to central compartment. The source says: The table listed below discloses the average measured results
Referring to FIG. 2, the experimental results obtained were compared to the results calculated using formulae (I) through (VI). The calculated data is totally consistent with the experimental data of this EXAMPLE.

Where [1] appears, read: Intrapulmonary Administration, dose: 7.5 μg/kg.
Setting [2] is: Intravenous Administration, dose: 5.0 μg/kg.

The Vd is the apparent volume that relates the amount in the body to the concentration in plasma or blood. Low readings indicate little distribution into tissue, high ones wide distribution into tissue. For “amylin (KCNTATCATQRLANFLVHSSNNFGAILSSTNVGSNTY; not fully specified (C-terminus, bridges); cysteine pairing not given here; UniProt P10997 34-70, looked up) [β-cell hypoglycemic medicament; natural, synthetic, semi-synthetic or recombinant amylin or amylin analogs]”, under setting [1], the “AUC (Area under the blood concentration time course curve)” value was determined as 16.9670 ng·min/mL; the “F (Bioavalability), Percent of administered drug absorbed from the lung dose” value came to 24.9%; the “T1/2 (Half life of the drug in the body)” value was determined as 26.3819 min; the Vd amounted to 63.0911 L. Under setting [1], this substance came in with a Ke of 0.02627 min⁻¹, a K12 of 0.03211 min⁻¹ and a K21 of 0.01774 min⁻¹. Besides, under setting [2], the “AUC (Area under the blood concentration time course curve)” value was determined as 45.4016 ng·min/mL, the “T1/2 (Half life of the drug in the body)” value is 17.1771 min, the Vd worked out at 9.5246 L and the Ke worked out at 0.0403 min⁻¹. Under setting [2], this substance came in with a K12 of 0.0180 min⁻¹ and a K21 of 0.0075 min⁻¹.
